Experimental data as given in paper PMC9191346.

Molecular target: enhanced green fluorescent protein-labeled BLM (BLM-eGFP) (not stated (Gallus gallus or human BLM cloned))
Experiment: optical tweezers with confocal fluorescence microscopy

Substance: enhanced green fluorescent protein-labeled BLM (BLM-eGFP) (domain or fragment)
- rupture force of the DNA tether bridged by the oligomeric BLM: < 300 pN
